# Measurements taken from patent US20240082389A1.
# Molecular target: ALFA nanobody (ALFANb) fused to the N-terminus of PTGFRN, displayed on the exterior surface of exosomes (UniProt Q9P2B2)
# Test: IL-12 ELISA of loaded EVs
substance,measurement,value
mouse IL-12 fused to ALFAtag peptide (ligand),fold more IL-12 loaded per EV than on control EVs with IL-12 genetically fused to PTGFRN,290 fold
